Measurements reported in patent publication US20080020978A1 (Amgen, published 2008).
Bridge positions count the residues as written; N and C are the ends. Square brackets hold non-standard residues; d marks the D form. 1Nal = N[C@@H](Cc1cccc2ccccc12)C(=O)O; hArg = N=C(N)NCCCC[C@H](N)C(=O)O; hCit = NC(=O)NCCCC[C@H](N)C(=O)O; Cit = NC(=O)NCCC[C@H](N)C(=O)O; Aib = CC(C)(N)C(=O)O

B1: SEQ ID NO 893 (peptide)
peptide: Ac-WVEHRLKGLLS[Cit]SGGVVRKNFVPTDVGPFAF-NH2
modifications: lactam 3-7
SMILES: CC(=O)N[C@@H](Cc1c[nH]c2ccccc12)C(=O)N[C@H](C(=O)N[C@H]1CCC(=O)NCCCC[C@@H](C(=O)NCC(=O)N[C@@H](CC(C)C)C(=O)N[C@@H](CC(C)C)C(=O)N[C@@H](CO)C(=O)N[C@@H](CCCNC(N)=O)C(=O)N[C@@H](CO)C(=O)NCC(=O)NCC(=O)N[C@H](C(=O)N[C@H](C(=O)N[C@@H](CCCNC(=N)N)C(=O)N[C@@H](CCCCN)C(=O)N[C@@H](CC(N)=O)C(=O)N[C@@H](Cc2ccccc2)C(=O)N[C@H](C(=O)N2CCC[C@H]2C(=O)N[C@H](C(=O)N[C@@H](CC(=O)O)C(=O)N[C@H](C(=O)NCC(=O)N2CCC[C@H]2C(=O)N[C@@H](Cc2ccccc2)C(=O)N[C@@H](C)C(=O)N[C@@H](Cc2ccccc2)C(N)=O)C(C)C)[C@@H](C)O)C(C)C)C(C)C)C(C)C)NC(=O)[C@H](CC(C)C)NC(=O)[C@H](CCCNC(=N)N)NC(=O)[C@H](Cc2c[nH]cn2)NC1=O)C(C)C
B2: SEQ ID NO 890 (peptide)
peptide: Ac-WVEHRLEGLLKRSGGVVRKNFVPTDVGPFAF-NH2
modifications: lactam 7-11
SMILES: CC(=O)N[C@@H](Cc1c[nH]c2ccccc12)C(=O)N[C@H](C(=O)N[C@@H](CCC(=O)O)C(=O)N[C@@H](Cc1c[nH]cn1)C(=O)N[C@@H](CCCNC(=N)N)C(=O)N[C@@H](CC(C)C)C(=O)N[C@H]1CCC(=O)NCCCC[C@@H](C(=O)N[C@@H](CCCNC(=N)N)C(=O)N[C@@H](CO)C(=O)NCC(=O)NCC(=O)N[C@H](C(=O)N[C@H](C(=O)N[C@@H](CCCNC(=N)N)C(=O)N[C@@H](CCCCN)C(=O)N[C@@H](CC(N)=O)C(=O)N[C@@H](Cc2ccccc2)C(=O)N[C@H](C(=O)N2CCC[C@H]2C(=O)N[C@H](C(=O)N[C@@H](CC(=O)O)C(=O)N[C@H](C(=O)NCC(=O)N2CCC[C@H]2C(=O)N[C@@H](Cc2ccccc2)C(=O)N[C@@H](C)C(=O)N[C@@H](Cc2ccccc2)C(N)=O)C(C)C)[C@@H](C)O)C(C)C)C(C)C)C(C)C)NC(=O)[C@H](CC(C)C)NC(=O)[C@H](CC(C)C)NC(=O)CNC1=O)C(C)C
B3: SEQ ID NO 889 (peptide)
peptide: Ac-WVTHRLRGELSRKGGVVRKNFVPTDVGPFAF-NH2
modifications: lactam 9-13
SMILES: CC(=O)N[C@@H](Cc1c[nH]c2ccccc12)C(=O)N[C@H](C(=O)N[C@H](C(=O)N[C@@H](Cc1c[nH]cn1)C(=O)N[C@@H](CCCNC(=N)N)C(=O)N[C@@H](CC(C)C)C(=O)N[C@@H](CCCNC(=N)N)C(=O)NCC(=O)N[C@H]1CCC(=O)NCCCC[C@@H](C(=O)NCC(=O)NCC(=O)N[C@H](C(=O)N[C@H](C(=O)N[C@@H](CCCNC(=N)N)C(=O)N[C@@H](CCCCN)C(=O)N[C@@H](CC(N)=O)C(=O)N[C@@H](Cc2ccccc2)C(=O)N[C@H](C(=O)N2CCC[C@H]2C(=O)N[C@H](C(=O)N[C@@H](CC(=O)O)C(=O)N[C@H](C(=O)NCC(=O)N2CCC[C@H]2C(=O)N[C@@H](Cc2ccccc2)C(=O)N[C@@H](C)C(=O)N[C@@H](Cc2ccccc2)C(N)=O)C(C)C)[C@@H](C)O)C(C)C)C(C)C)C(C)C)NC(=O)[C@H](CCCNC(=N)N)NC(=O)[C@H](CO)NC(=O)[C@H](CC(C)C)NC1=O)[C@@H](C)O)C(C)C
B4: SEQ ID NO 897 (peptide)
peptide: Ac-[1Nal]VEH[hArg]LKGLLS[Cit]SGGVVRKNFVPTDVGPFAF-NH2
modifications: lactam 3-7
SMILES: CC(=O)N[C@@H](Cc1cccc2ccccc12)C(=O)N[C@H](C(=O)N[C@H]1CCC(=O)NCCCC[C@@H](C(=O)NCC(=O)N[C@@H](CC(C)C)C(=O)N[C@@H](CC(C)C)C(=O)N[C@@H](CO)C(=O)N[C@@H](CCCNC(N)=O)C(=O)N[C@@H](CO)C(=O)NCC(=O)NCC(=O)N[C@H](C(=O)N[C@H](C(=O)N[C@@H](CCCNC(=N)N)C(=O)N[C@@H](CCCCN)C(=O)N[C@@H](CC(N)=O)C(=O)N[C@@H](Cc2ccccc2)C(=O)N[C@H](C(=O)N2CCC[C@H]2C(=O)N[C@H](C(=O)N[C@@H](CC(=O)O)C(=O)N[C@H](C(=O)NCC(=O)N2CCC[C@H]2C(=O)N[C@@H](Cc2ccccc2)C(=O)N[C@@H](C)C(=O)N[C@@H](Cc2ccccc2)C(N)=O)C(C)C)[C@@H](C)O)C(C)C)C(C)C)C(C)C)NC(=O)[C@H](CC(C)C)NC(=O)[C@H](CCCCNC(=N)N)NC(=O)[C@H](Cc2c[nH]cn2)NC1=O)C(C)C
B5: SEQ ID NO 898 (peptide)
peptide: Ac-[Aib]WVEH[hArg]LKGLLS[Cit]SGGVVRKNFVPTDVGPFAF-NH2
modifications: lactam 4-8
SMILES: CC(=O)NC(C)(C)C(=O)N[C@@H](Cc1c[nH]c2ccccc12)C(=O)N[C@H](C(=O)N[C@H]1CCC(=O)NCCCC[C@@H](C(=O)NCC(=O)N[C@@H](CC(C)C)C(=O)N[C@@H](CC(C)C)C(=O)N[C@@H](CO)C(=O)N[C@@H](CCCNC(N)=O)C(=O)N[C@@H](CO)C(=O)NCC(=O)NCC(=O)N[C@H](C(=O)N[C@H](C(=O)N[C@@H](CCCNC(=N)N)C(=O)N[C@@H](CCCCN)C(=O)N[C@@H](CC(N)=O)C(=O)N[C@@H](Cc2ccccc2)C(=O)N[C@H](C(=O)N2CCC[C@H]2C(=O)N[C@H](C(=O)N[C@@H](CC(=O)O)C(=O)N[C@H](C(=O)NCC(=O)N2CCC[C@H]2C(=O)N[C@@H](Cc2ccccc2)C(=O)N[C@@H](C)C(=O)N[C@@H](Cc2ccccc2)C(N)=O)C(C)C)[C@@H](C)O)C(C)C)C(C)C)C(C)C)NC(=O)[C@H](CC(C)C)NC(=O)[C@H](CCCCNC(=N)N)NC(=O)[C@H](Cc2c[nH]cn2)NC1=O)C(C)C
B6: SEQ ID NO 896 (peptide)
peptide: Ac-WVEHRLKGLLS[Cit]SGGVVRKNFVPTDVGPFAF-NH2
modifications: lactam 3-7
SMILES: CC(=O)N[C@@H](Cc1c[nH]c2ccccc12)C(=O)N[C@H](C(=O)N[C@H]1CCC(=O)NCCCC[C@@H](C(=O)NCC(=O)N[C@@H](CC(C)C)C(=O)N[C@@H](CC(C)C)C(=O)N[C@@H](CO)C(=O)N[C@@H](CCCNC(N)=O)C(=O)N[C@@H](CO)C(=O)NCC(=O)NCC(=O)N[C@H](C(=O)N[C@H](C(=O)N[C@@H](CCCNC(=N)N)C(=O)N[C@@H](CCCCN)C(=O)N[C@@H](CC(N)=O)C(=O)N[C@@H](Cc2ccccc2)C(=O)N[C@H](C(=O)N2CCC[C@H]2C(=O)N[C@H](C(=O)N[C@@H](CC(=O)O)C(=O)N[C@H](C(=O)NCC(=O)N2CCC[C@H]2C(=O)N[C@@H](Cc2ccccc2)C(=O)N[C@@H](C)C(=O)N[C@@H](Cc2ccccc2)C(N)=O)C(C)C)[C@@H](C)O)C(C)C)C(C)C)C(C)C)NC(=O)[C@H](CC(C)C)NC(=O)[C@H](CCCNC(=N)N)NC(=O)[C@H](Cc2c[nH]cn2)NC1=O)C(C)C
B7: SEQ ID NO 895 (peptide)
peptide: Ac-WVEHRLKGLLS[Cit]SGGVVRKNFVPTDVGPFAF-NH2
modifications: lactam 3-7
SMILES: CC(=O)N[C@@H](Cc1c[nH]c2ccccc12)C(=O)N[C@H](C(=O)N[C@H]1CCC(=O)NCCCC[C@@H](C(=O)NCC(=O)N[C@@H](CC(C)C)C(=O)N[C@@H](CC(C)C)C(=O)N[C@@H](CO)C(=O)N[C@@H](CCCNC(N)=O)C(=O)N[C@@H](CO)C(=O)NCC(=O)NCC(=O)N[C@H](C(=O)N[C@H](C(=O)N[C@@H](CCCNC(=N)N)C(=O)N[C@@H](CCCCN)C(=O)N[C@@H](CC(N)=O)C(=O)N[C@@H](Cc2ccccc2)C(=O)N[C@H](C(=O)N2CCC[C@H]2C(=O)N[C@H](C(=O)N[C@@H](CC(=O)O)C(=O)N[C@H](C(=O)NCC(=O)N2CCC[C@H]2C(=O)N[C@@H](Cc2ccccc2)C(=O)N[C@@H](C)C(=O)N[C@@H](Cc2ccccc2)C(N)=O)C(C)C)[C@@H](C)O)C(C)C)C(C)C)C(C)C)NC(=O)[C@H](CC(C)C)NC(=O)[C@H](CCCNC(=N)N)NC(=O)[C@H](Cc2c[nH]cn2)NC1=O)C(C)C
B8: PEG-peptide of SEQ ID NO 886 (peptide)
peptide: WVTHXLAGLLSXSGGVVXKNFVPTDVGPFAF
modifications: Ac-WVTH[hCit]LAGLLS[hCit]SGGVV[hArg]KNFVPTDVGPFAF-NH2; PEG-conjugated (Table 2C: in most cases at Lys^25)
B9: PEG-peptide of SEQ ID NO 887 (peptide)
peptide: B8 peptide
modifications: Ac-WVTH[hArg]LAGLLS[hCit]SGGVV[hArg]KNFVPTDVGPFAF-NH2; PEG-conjugated (Table 2C: in most cases at Lys^25)

Biological target: CGRP1 receptor (CRLR/RAMP1 complex) of human neuroblastoma SK-N-MC cells (human, UniProt Q16602 23-461; O60894 27-148)
Sequence (Q16602 23-461, chain 1 of 2): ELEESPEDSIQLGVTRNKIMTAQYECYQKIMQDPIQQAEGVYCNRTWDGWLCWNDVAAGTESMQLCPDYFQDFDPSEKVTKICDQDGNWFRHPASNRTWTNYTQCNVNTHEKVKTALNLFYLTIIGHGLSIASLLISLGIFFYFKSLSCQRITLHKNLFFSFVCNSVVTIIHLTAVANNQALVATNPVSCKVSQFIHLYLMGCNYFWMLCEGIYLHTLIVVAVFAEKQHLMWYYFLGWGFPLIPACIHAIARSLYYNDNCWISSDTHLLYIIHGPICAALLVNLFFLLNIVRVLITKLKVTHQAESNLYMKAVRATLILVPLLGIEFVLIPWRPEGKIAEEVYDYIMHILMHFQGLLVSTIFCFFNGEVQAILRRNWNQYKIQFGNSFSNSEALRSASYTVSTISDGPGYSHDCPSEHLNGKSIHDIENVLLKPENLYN
Sequence (O60894 27-148, chain 2 of 2): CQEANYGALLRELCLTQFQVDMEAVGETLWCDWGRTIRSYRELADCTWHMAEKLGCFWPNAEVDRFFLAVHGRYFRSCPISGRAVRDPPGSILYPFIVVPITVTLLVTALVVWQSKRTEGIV
Assay: cell-based or functional assay

Binder | Peptide IC50 [nM] | PEG-peptide IC50 [nM]
B1 | 1.64 | –
B2 | 1.7 | –
B3 | 0.94 | –
B4 | 2.25 | –
B5 | 3.18 | –
Ac-WVEHRLKGLLSRSGGVVRKNFVPTDVGPFAF-NH2 (lactam 3-7) [SEQ ID NO 891] | 1.47 | –
B6 | 1.61 | –
Ac-WVTH[hCit]LAGLLS[hArg]SGGVV[hArg]KNFVPTDVGPFAF-NH2 (also: PEG-conjugated, in most cases at Lys25) [PEG-peptide of SEQ ID NO 888] | – | 2.11
Ac-WVEHRLEGLLKRSGGVVRKNFVPTDVGPFAF-NH2 (lactam 7-11; also: PEG-conjugated, in most cases at Lys25) [PEG-peptide of SEQ ID NO 890] | – | 2.86
Ac-[1Nal]VEH[hArg]LKGLLS[Cit]SGGVVRKNFVPTDVGPFAF-NH2 (lactam 3-7; also: PEG-conjugated, in most cases at Lys25) [PEG-peptide of SEQ ID NO 897] | – | 4.1
B7 | 2.8 | –
Ac-WVEHRLKGELSRKGGVVRKNFVPTDVGPFAF-NH2 (lactam 9-13, 3-7) [SEQ ID NO 892] | 1.11 | –
B8 | – | 22.7
B9 | – | 6.3
WVTHXLAGLLSXSGGVVXKNFVPTDVGPFAF (Ac-WVTH[hArg]LAGLLS[hCit]SGGVV[hArg]KNFVPTDVGPFAF-NH2) [SEQ ID NO 887] | 3.14 | –
Ac-WVEHRLKGLLSRSGGVVRKNFVPTDVGPFAF-NH2 (lactam 3-7; also: PEG-conjugated, in most cases at Lys25) [PEG-peptide of SEQ ID NO 891] | – | 3.71
Ac-WVEH[hArg]LKGLLS[Cit]SGGVVRKNFVPTDVGPFAF-NH2 (lactam 3-7; also: PEG-conjugated, in most cases at Lys25) [PEG-peptide of SEQ ID NO 894] | – | 3.54
Ac-WVEH[hArg]LKGLLS[Cit]SGGVVRKNFVPTDVGPFAF-NH2 (lactam 3-7) [SEQ ID NO 894] | 1.26 | –
